# Assay results from patent US20180127487A1 (Sanofi, published 2018).
# T1: recombinant mouse FcRn (mouse, UniProt Q61559 22-297; P01887 21-119)
# T1 sequence 1: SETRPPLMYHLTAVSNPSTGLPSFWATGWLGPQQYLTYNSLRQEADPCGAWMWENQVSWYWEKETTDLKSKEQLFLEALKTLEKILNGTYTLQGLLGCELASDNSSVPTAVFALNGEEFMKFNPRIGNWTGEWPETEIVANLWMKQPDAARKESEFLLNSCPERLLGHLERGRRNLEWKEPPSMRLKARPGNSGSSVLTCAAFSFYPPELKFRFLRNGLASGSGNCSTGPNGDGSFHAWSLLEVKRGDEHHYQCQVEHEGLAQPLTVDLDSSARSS
# T1 sequence 2: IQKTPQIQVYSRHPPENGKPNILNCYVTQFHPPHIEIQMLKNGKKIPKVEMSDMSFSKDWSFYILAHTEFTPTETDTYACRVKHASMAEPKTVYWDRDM
# B1: mAb1 (antibody)
# heavy: not shown
# light: QAVVTQPPSVSGAPGQRVTISCTGSSSNIGADYNVHWYQLLPGTAPKLLIYGNTNRPSGVPDRFSGSKSGTSASLAITGLQAEDEADYYCQSYDSSLSASVFGGGTKLTVLGQPKAAPSVTLFPPSSEELQANKATLVCLISDFYPGAVTVAWKADSSPVKAGVETTTPSKQSNNKYAASSYLSLTPEQWKSHRSYSCQVTHEGSTVEKTVAPTECS
# notes: also called parent antibody mAb1
# B2: mAb7 (antibody)
# heavy: not shown
# light: B1 light
# notes: also called mAb1LS
# Assays:
# [1] = biological target: T2, CHIKV Caribbean strain, Asian lineage (envelope protein E2 on virus) (Chikungunya virus); assay: cell-based or functional assay
# [2] = biological target: T3, CHIKV La Reunion (LR) strain, ECSA lineage (envelope protein E2 on virus) (Chikungunya virus); assay: cell-based or functional assay
# [3] = biological target: T4, CHIKV 37997 strain, West African lineage (envelope protein E2 on virus) (Chikungunya virus); assay: cell-based or functional assay
# [4] = biological target: T2, CHIKV Caribbean strain, Asian lineage …; assay: cell-based or functional assay; remark: listed apart in the source
# [5] = biological target: T3, CHIKV La Reunion (LR) strain, ECSA …; assay: cell-based or functional assay; remark: listed apart in the source
# [6] = biological target: T4, CHIKV 37997 strain, West African …; assay: cell-based or functional assay; remark: listed apart in the source
# recombinant human FcRn [7] = biological target: T5, recombinant human FcRn (human, UniProt P55899 24-297; P61769 21-119); assay: SPR, human FcRn immobilised; relative to mAb1
# T5 construct: also called human FcRn receptor
# recombinant mouse FcRn [8] = biological target: T1, recombinant mouse FcRn; assay: SPR, mouse FcRn immobilised; relative to mAb1
# recombinant human FcRn [9] = biological target: T5, recombinant human FcRn; assay: SPR (Biacore T200), human FcRn immobilised on CM5 chip
# recombinant mouse FcRn [10] = biological target: T1, recombinant mouse FcRn; assay: SPR (Biacore T200), mouse FcRn immobilised on CM5 chip
# Antigen (E2) = Antigen (E2) (Chikungunya virus); assay: SPR (Biacore T200), His-tagged antigen captured by anti-His antibody, 1:1 model
# [11] = biological target: T6, Recombinant human HPC4-tagged FcγRIII-F158 (human, UniProt P08637 17-208); assay: SPR (Biacore 3000), HPC4-tagged FcγRIII-F158 captured on anti-HPC4 CM5 chip, antibody injected 2 min, in duplicate; concentration (900, 300 or 100 nM in the methods) not printed on the sheet
# T6 construct: also called FcγRIIIaF158; not shown: HPC4 tag
# [12] = biological target: T7, Recombinant human HPC4-tagged FcγRIIIa-V158 (human, UniProt P08637 17-208); assay: SPR (Biacore 3000), HPC4-tagged FcγRIIIa-V158 captured on anti-HPC4 CM5 chip, antibody injected 2 min, in duplicate; concentration (900, 300 or 100 nM in the methods) not printed on the sheet
# T7 construct: Valine at 158 is a polymorphism, named without an old residue; also called Val158; not shown: HPC4 tag
# T7 sequence (P08637 17-208 F176V): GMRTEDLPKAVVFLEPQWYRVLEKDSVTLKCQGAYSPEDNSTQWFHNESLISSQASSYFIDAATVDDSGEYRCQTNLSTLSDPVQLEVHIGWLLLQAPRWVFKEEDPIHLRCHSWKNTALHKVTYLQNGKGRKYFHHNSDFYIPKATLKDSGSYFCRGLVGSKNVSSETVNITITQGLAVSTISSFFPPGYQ
# T5 sequence (P55899 24-297 limits assumed, chain 1 of 2): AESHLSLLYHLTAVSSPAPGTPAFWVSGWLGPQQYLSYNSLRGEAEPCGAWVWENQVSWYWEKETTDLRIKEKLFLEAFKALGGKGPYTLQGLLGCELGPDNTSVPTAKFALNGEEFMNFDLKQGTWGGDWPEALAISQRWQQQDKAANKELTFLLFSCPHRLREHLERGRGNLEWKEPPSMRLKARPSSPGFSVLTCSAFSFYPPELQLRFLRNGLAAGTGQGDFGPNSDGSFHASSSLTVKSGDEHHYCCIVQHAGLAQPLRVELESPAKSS
# T5 sequence (P61769 21-119 limits assumed, chain 2 of 2): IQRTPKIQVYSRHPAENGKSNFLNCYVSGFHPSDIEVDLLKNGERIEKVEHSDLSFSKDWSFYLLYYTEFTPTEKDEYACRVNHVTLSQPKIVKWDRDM
# T6 sequence (P08637 17-208): as the sequence (P08637 17-208 F176V) above, with V160F counted along it
Binder,"EC50, plaque reduction neutralization [1] [ng/mL]","EC50, plaque reduction neutralization [2] [ng/mL]","EC50, plaque reduction neutralization [3] [ng/mL]","In vitro neutralization - EC50 (ng/ml), plaque reduction assay on Vero cells [4] [ng/mL]","In vitro neutralization - EC50 (ng/ml), plaque reduction assay on Vero cells [5] [ng/mL]","In vitro neutralization - EC50 (ng/ml), plaque reduction assay on Vero cells [6] [ng/mL]",Affinity Increase (fold) (recombinant human FcRn [7]),Affinity Increase (fold) (recombinant mouse FcRn [8]),Kd (recombinant human FcRn [9]) [nM],Kd (recombinant mouse FcRn [10]) [nM],Kd (Antigen (E2)) [nM],binding result [11],binding result [12]
B1,< 10,< 10,< 10,7.6,3.9,4.8,1,1,348,20,0.13,binds,binds
B2,< 1,< 1,< 1,0.6,0.3,0.2,23.8,3.4,15,5.9,0.17,binds,binds
